In patent JP2012055312A:

Target: ビオチン−IL−6 (UniProt P05231)
Assay: Luminex-based assay of IL-6 binding to IL-6 receptor (solid-phase sIL-6R/gp80)

Sequence of UniProt P05231 (P05231 30-212 limits assumed): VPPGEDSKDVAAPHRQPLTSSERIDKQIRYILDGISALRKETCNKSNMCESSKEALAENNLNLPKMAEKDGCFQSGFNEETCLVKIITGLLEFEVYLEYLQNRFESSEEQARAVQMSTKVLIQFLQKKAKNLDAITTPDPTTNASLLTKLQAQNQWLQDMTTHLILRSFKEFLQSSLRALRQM

- percent inhibition of IL-6 binding to IL-6 receptor: 100%
B1: キメラCLB8 (antibody, V domains shown)
VH: EVQLVESGGKLLKPGGSLKLSCAASGFTFSSFAMSWFRQSPEKRLEWVAEISSGGSYTYYPDTVTGRFTISRDNAKNTLYLEMSSLRSEDTAMYYCARGLWGYYALDYWGQGTSVTVSS
VL: QIVLIQSPAIMSASPGEKVTMTCSASSSVSYMYWYQQKPGSSPRLLIYDTSNLASGVPVRFSGSGSGTSYSLTISRMEAEDAATYYCQQWSGYPYTFGGGTKLEIK
